Tests used:
[1] = biological target: Human EphA2 (human) (UniProt P29317); experiment: IHC/IF on frozen human tumor tissue: RCC-papillary
[2] = biological target: Human EphA2 (human) (UniProt P29317); experiment: IHC/IF on frozen human tumor tissue: OVA
[3] = biological target: Human EphA2 (human) (UniProt P29317); experiment: IHC/IF on frozen human tumor tissue: UCEC-clear cell
[4] = biological target: Human EphA2 (human) (UniProt P29317); experiment: IHC/IF on frozen human tumor tissue: NSCLC-SQ
[5] = biological target: Human EphA2 (human) (UniProt P29317); experiment: IHC/IF on frozen human tumor tissue: STS
[6] = biological target: Human EphA2 (human) (UniProt P29317); experiment: IHC/IF on frozen human tumor tissue: ESO
[7] = biological target: Human EphA2 (human) (UniProt P29317); experiment: IHC/IF on frozen human tumor tissue: RCC-clear cell
[8] = biological target: Human EphA2 (human) (UniProt P29317); experiment: IHC/IF on frozen human tumor tissue: PANC
[9] = biological target: Human EphA2 (human) (UniProt P29317); experiment: IHC/IF on frozen human tumor tissue: ER+ BRC
[10] = biological target: Human EphA2 (human) (UniProt P29317); experiment: IHC/IF on frozen human tumor tissue: UCEC-papillary
[11] = biological target: Human EphA2 (human) (UniProt P29317); experiment: IHC/IF on frozen human tumor tissue: GAC
[12] = biological target: Human EphA2 (human) (UniProt P29317); experiment: IHC/IF on frozen human tumor tissue: URO
[13] = biological target: Human EphA2 (human) (UniProt P29317); experiment: IHC/IF on frozen human tumor tissue: HNC
[14] = biological target: Human EphA2 (human) (UniProt P29317); experiment: IHC/IF on frozen human tumor tissue: CRC
[15] = biological target: Human EphA2 (human) (UniProt P29317); experiment: IHC/IF on frozen human tumor tissue: UCEC-endometrioid
[16] = biological target: Human EphA2 (human) (UniProt P29317); experiment: IHC/IF on frozen human tumor tissue: ANC
[17] = biological target: Human EphA2 (human) (UniProt P29317); experiment: IHC/IF on frozen human tumor tissue: Her2+ BRC
[18] = biological target: Human EphA2 (human) (UniProt P29317); experiment: IHC/IF on frozen human tumor tissue: MELA
[19] = biological target: Human EphA2 (human) (UniProt P29317); experiment: IHC/IF on frozen human tumor tissue: NSCLC-Adeno
[20] = biological target: Human EphA2 (human) (UniProt P29317); experiment: IHC/IF on frozen human tumor tissue: PROC
[21] = biological target: Human EphA2 (human) (UniProt P29317); experiment: IHC/IF on frozen human tumor tissue: TNBC

In the case of LS-B1794-50 (AA 450-500) (antibody), the IHC score [1] is reported as 2, the IHC score [2] is reported as 1 and the IHC score [3] is reported as 2. For the same substance, the IHC score [4] was 1, the IHC score [5] was 1 and the IHC score [6] was 1. It also gave an IHC score [7] of 1, an IHC score [8] of 1 and an IHC score [9] of 1. The IHC score [10] was 2, the IHC score [11] was 1 and the IHC score [12] was 1. For the same substance, the IHC score [13] was 1, the IHC score [14] was 1 and the IHC score [15] was 1. The IHC score [16] was 1, the IHC score [17] was 1 and the IHC score [18] was 2. The IHC score [19] was 2, the IHC score [20] was 1 and the IHC score [21] was 1.

“LS-C36249-100 (extracellular) (antibody)” showed an IHC score [1] of 1, an IHC score [2] of 2 and an IHC score [3] of 2. The IHC score [4] was 2, the IHC score [5] was 2 and the IHC score [6] was 2. It also gave an IHC score [7] of 1, an IHC score [8] of 1 and an IHC score [9] of 1. For the same substance, the IHC score [10] was 3, the IHC score [11] was 1 and the IHC score [12] was 1. It also gave an IHC score [13] of 2, an IHC score [14] of 1 and an IHC score [15] of 2. The IHC score [16] was 2, the IHC score [17] was 2 and the IHC score [18] was 3. The IHC score [19] was 2, the IHC score [20] was 1 and the IHC score [21] was 1.

LS-C100255-400 (AA 30-60) (antibody) gave an IHC score [1] of 1, an IHC score [2] of 1 and an IHC score [3] of 2. For the same substance, the IHC score [4] was 1, the IHC score [5] was 1 and the IHC score [6] was 1. It also gave an IHC score [7] of 1, an IHC score [8] of 1 and an IHC score [9] of 1. The IHC score [10] was 2, the IHC score [11] was 1 and the IHC score [12] was 1. For the same substance, the IHC score [13] was 1, the IHC score [14] was 1 and the IHC score [15] was 1. For the same substance, the IHC score [16] was 1, the IHC score [17] was 1 and the IHC score [18] was 2. For the same substance, the IHC score [19] was 1, the IHC score [20] was 1 and the IHC score [21] was 1.

MAB3035 (Gln25-Asn534) (antibody) gave an IHC score [1] of 1, an IHC score [2] of 2 and an IHC score [3] of 2. The IHC score [4] was 2, the IHC score [5] was 1 and the IHC score [6] was 2. For the same substance, the IHC score [7] was 1, the IHC score [8] was 2 and the IHC score [9] was 1. It also gave an IHC score [10] of 2, an IHC score [11] of 1 and an IHC score [12] of 1. The IHC score [13] was 2, the IHC score [14] was 1 and the IHC score [15] was 2. The IHC score [16] was 2, the IHC score [17] was 1 and the IHC score [18] was 3. For the same substance, the IHC score [19] was 2, the IHC score [20] was 1 and the IHC score [21] was 1.
